{"source": "paper PMC4773887", "experiment_in_all_cases": "EMSA", "conditions_in_all_cases": "EMSA: 10 fmol DNA, 300 uM ddGTP, 3 mM dCTP; 6% native PAGE in 0.5x TBE, 35 min, 180 V; binding buffer, salt, pH and temperature not stated (ref 59)", "key": {"[1]": {"test_system": "HsPOLγA D274A (exo-);HsPOLγB WT (Homo sapiens;Homo sapiens)"}, "[2]": {"test_system": "HsPOLγA H1134A (pol-);HsPOLγB WT (Homo sapiens;Homo sapiens)"}, "[3]": {"test_system": "HsPOLγA Q1102A (pol-);HsPOLγB WT (Homo sapiens;Homo sapiens)"}, "[4]": {"test_system": "HsPOLγA WT;HsPOLγB WT (Homo sapiens;Homo sapiens)"}}, "data": [{"substance": "EMSA primer-template", "values": [{"measurement": "Kd", "setting": "[1]", "result": 2.8, "unit": "nM"}, {"measurement": "Kd", "setting": "[2]", "result": 3.5, "unit": "nM"}, {"measurement": "Kd", "setting": "[3]", "result": 3.8, "unit": "nM"}, {"measurement": "Kd", "setting": "[4]", "result": 5.5, "unit": "nM"}]}]}
